Measurements reported in patent WO2014167826A1 (dated 2014).

Experiments:
p3-42 = biological target: T1, p3-42; test: sandwich ELISA, 44A3 capture, HRP-2G2 detection
T1 construct: also called Aβ17-42; 17-42
T1 peptide: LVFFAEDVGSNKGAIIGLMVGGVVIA

p3-40 = biological target: T2, p3-40; test: sandwich ELISA, 1A10 capture, HRP-2G2 detection
T2 construct: also called Aβ17-40; 17-40
T2 peptide: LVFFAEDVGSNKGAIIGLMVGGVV

binding result (p3-42): binds
binding result (p3-40): binds
B1: 2G2 antibody (antibody, V domains shown)
VH: QVQLQQPGSELVRPGASVKLSCEASGYTFTSYWIHWVKQRPGQGLEWIGNIYPGSGDTNYDERFKSKATLTVDTSSNTAYMQLISLTSDDSAVYYCTRGKNWGQGTTLTVSS
VL: DIQMNQSPSSLSASLGDTITITCHASQNINVWLSWYQQKPGNIPRLLIYKVSNLHTGVPSRFSGSGSGTGFTLTISSLQPEDIATYYCQQGQSYPLTFGGGTKLEIR
notes: Used unlabelled in the Western blot and conjugated to horseradish peroxidase (HRP) as detection antibody in the sandwich ELISAs; only the CDRs are; also called clone 2G2; 2G2 monoclonal antibody
